B1: E. coli ribonucleotide reductase large subunit α2 (enzyme)
chain: MNQNLLVTKRDGSTERINLDKIHRVLDWAAEGLHNVSISQVELRSHIQFYDGIKTSDIHETIIKAAADLISRDAPDYQYLAARLAIFHLRKKAYGQFEPPALYDHVVKMVEMGKYDNHLLEDYTEEEFKQMDTFIDHDRDMTFSYAAVKQLEGKYLVQNRVTGEIYESAQFLYILVAACLFSNYPRETRLQYVKRFYDAVSTFKISLPTPIMSGVRTPTRQFSSCVLIECGDSLDSINATSSAIVKYVSQRAGIGINAGRIRALGSPIRGGEAFHTGCIPFYKHFQTAVKSCSQGGVRGGAATLFYPMWHLEVESLLVLKNNRGVEGNRVRHMDYGVQINKLMYTRLLKGEDITLFSPSDVPGLYDAFFADQEEFERLYTKYEKDDSIRKQRVKAVELFSLMMQERASTGRIYIQNVDHCNTHSPFDPAIAPVRQSNLCLEIALPTKPLNDVNDENGEIALCTLSAFNLGAINNLDELEELAILAVRALDALLDYQDYPIPAAKRGAMGRRTLGIGVINFAYYLAKHGKRYSDGSANNLTHKTFEAIQYYLLKASNELAKEQGACPWFNETTYAKGILPIDTYKKDLDTIANEPLHYDWEALRESIKTHGLRNSTLSALMPSETSSQISNATNGIEPPRGYVSIKASKDGILRQVVPDYEHLHDAYELLWEMPGNDGYLQLVGIMQKFIDQSISANTNYDPSRFPSGKVPMQQLLKDLLTAYKFGVKTLYYQNTRDGAEDAQDDLVPSIQDDGCESGACKI

Assays:
[1] = molecular target: E. coli ribonucleotide reductase large subunit α2 (E. coli) (UniProt P00452); experiment: cross-linking
[2] = molecular target: ribonucleotide reductase β2 (Escherichia coli) (UniProt P69924); conditions: cited from earlier work
[3] = molecular target: DAN-β2(V351C): (His)6-β2-C268S/C305S/V351C labelled with dimethylaminonaphthalene (E. coli); experiment: other fluorescence titration

Row | Molecule | percent cross-linked [1] [%] | further results
1 | BP-β2(V365C): (His)6-β2-C268S/C305S/V365C labelled with benzophenone (enzyme) | 19 | 
2 | BP-β2(Y356C): (His)6-β2-C268S/C305S/Y356C labelled with benzophenone (enzyme) | 9 | 
3 | ribonucleotide reductase α2 (from UniProt P00452) |  | Kd [2]: 200 nM
4 | B1 |  | Kd [3]: 380 nM

Reference: paper PMC2645937
